We go through 3 molecules from US20090023152A1 (published 2009).

B2: RFXAP (other, human, UniProt O00287 1-272, looked up)
chain: MEAQGVAEGAGPGAASGVPHPAALAPAAAPTLAPASVAAAASQFTLLVMQPCAGQDEAAAPGGSVGAGKPVRYLCEGAGDGEEEAGEDEADLLDTSDPPGGGESAASLEDLEDEETHSGGEGSSGGARRRGSGGGSMSKTCTYEGCSETTSQVAKQRKPWMCKKHRNKMYKDKYKKKKSDQALNCGGTASTGSAGNVKLEESADNILSIVKQRTGSFGDRPARPTLLEQVLNQKRLSLLRSPEVVQFLQKQQQLLNQQVLEQRQQQFPGTSM
notes: also called RFXAP subunit of RFX

The target of assay [1] is MHC-II enhanceosome assembled on the DRA promoter fragment (human) (UniProt P48382). Put plainly: promoter pull-down from crude cell extracts, immunoblot. For orientation: A western blot detects proteins with antibodies after separation by electrophoresis.
The target in the next assay is T1, RFX5 (human, UniProt P48382 2-616).
T1 construct: also called RFX5 subunit of RFX
T1 sequence (looked up): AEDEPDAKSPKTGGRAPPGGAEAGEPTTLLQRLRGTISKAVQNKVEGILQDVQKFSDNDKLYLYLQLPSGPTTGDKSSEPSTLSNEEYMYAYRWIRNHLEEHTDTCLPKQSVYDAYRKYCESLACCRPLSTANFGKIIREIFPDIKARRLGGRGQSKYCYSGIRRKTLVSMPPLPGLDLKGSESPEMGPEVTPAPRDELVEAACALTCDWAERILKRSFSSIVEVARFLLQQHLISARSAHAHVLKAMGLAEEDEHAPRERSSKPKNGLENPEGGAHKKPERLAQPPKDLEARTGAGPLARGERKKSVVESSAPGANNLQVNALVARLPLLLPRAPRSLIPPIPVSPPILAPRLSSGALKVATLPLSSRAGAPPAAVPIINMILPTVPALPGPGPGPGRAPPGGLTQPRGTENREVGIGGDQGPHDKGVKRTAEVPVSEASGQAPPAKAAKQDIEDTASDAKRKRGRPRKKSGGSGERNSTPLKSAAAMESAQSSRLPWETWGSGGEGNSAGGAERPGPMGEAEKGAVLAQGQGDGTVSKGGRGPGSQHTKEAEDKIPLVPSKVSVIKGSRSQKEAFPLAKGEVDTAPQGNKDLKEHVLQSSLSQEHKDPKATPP
Put plainly: EMSA supershift of co-translated subunits on X box probe. Background: In EMSA bound probe runs differently from free probe, usually more slowly.

The target in the assay “RFXAP” is B2. The assay is described as above.

Regarding “CIITA (wild type) (from UniProt P33076 1-1130)”, the percent of the CIITA recruited in assay [1] was less than 1%.

B1: FLAG-RFXANK (other)
chain: DYKDDDDKMELTQPAEDLIQTQQTPASELGDPEDPGEEAADGSDTVVLSLFPCTPEPVNPEPDASVSSPQAGSSLKHSTTLTNRQRGNEVSALPATLDSLSIHQLAAQGELDQLKEHLRKGDNLVNKPDERGFTPLIWASAFGEIETVRFLLEWGADPHILAKERESALSLASTGGYTDIVGLLLERDVDINIYDWNGGTPLLYAVRGNHVKCVEALLARGADLTTEADSGYTPMDLAVALGYRKVQQVIENHILKLFQSNLVPADPE
notes: In vitro translated
On to B1, for which the binding result with RFX5 and with RFXAP was “binds” in each case.
With B2, the binding result with RFX5 is reported as “binds”.
